Data as given in publication PMC5136324 (Molecular cancer therapeutics, 2016).
Ends that are not written are not given here. * marks the point of attachment. FITC = O=C1OC2(c3ccc(O)cc3Oc3cc(O)ccc32)c2ccc(NC(=S)*)cc21

Molecular target: AR ligand binding domain (residues 670-920), biotinylated, N-terminal (His)6-avidin tag (human, UniProt P10275 670-920, biotin (biotinylated form))
Assay: FRET or BRET

B1: FITC-labelled SGTA peptide (FITC-MPQDLRSPARTPPSEEDSAEA) (peptide)
peptide: {FITC}-MPQDLRSPARTPPSEEDSAEA
- binding result: binds
